{"source": "the Human Domainome abundance scans (Beltran et al. 2025)", "parents": {"B1": {"name": "Zinc finger MYM-type protein 3, residues 405 to 444; numbered along this chain, Q14202 (parent)", "chain": "DATRCSICQKTGEVLHEVSNGSVVHRLCSDSCFSKFRANK"}}, "note": "± gives the uncertainty stated by the source."}
{"variants_of": "B1", "test": "abundance fitness (aPCA) (normalised: wild type 0, dead -1); higher = more abundant; growth selection in yeast, the domain comes from the species named", "conditions": "Homo sapiens"}
{"variant": "DATRCSICQKTGEVLHEVSNGSVVHRLCSWSCFSKFRANK", "abundance fitness": "-1.07 ± 0.12"}
{"variant": "DATRCSICQKTGEVLHEVSNGSVVHRLCSRSCFSKFRANK", "abundance fitness": "-0.231 ± 0.056"}
{"variant": "DATRCSICQKTGEVLHEVSNGSVVHRLCSMSCFSKFRANK", "abundance fitness": "-0.28 ± 0.088"}
{"variant": "DATRCSICQKTGEVLHEVSNGSVVHRLCSGSCFSKFRANK", "abundance fitness": "-0.269 ± 0.056"}
{"variant": "DATRCSICQKTGEVLHEVSNGSVVHRLCSPSCFSKFRANK", "abundance fitness": "-0.371 ± 0.1"}
{"variant": "DATRCSICQKTGEVLHEVSNGSVVHRLCSVSCFSKFRANK", "abundance fitness": "-0.384 ± 0.062"}
{"variant": "DATRTSICQKTGEVLHEVSNGSVVHRLCSDSCFSKFRANK", "abundance fitness": "-0.836 ± 0.088"}
{"variant": "DATRVSICQKTGEVLHEVSNGSVVHRLCSDSCFSKFRANK", "abundance fitness": "-0.999 ± 0.082"}
{"variant": "DATRCSICQKTGEVLHEVSNGSVVHWLCSDSCFSKFRANK", "abundance fitness": "-0.21 ± 0.061"}
{"variant": "DATRCSICQKTGEVLHEVSNGSVVHMLCSDSCFSKFRANK", "abundance fitness": "-0.12 ± 0.078"}
{"variant": "DATRCSICQKTGEVLHEVSNGSVVHDLCSDSCFSKFRANK", "abundance fitness": "-0.606 ± 0.16"}
{"variant": "DATRCSICQKTGEVLHEVSNGSVVHALCSDSCFSKFRANK", "abundance fitness": "-0.02 ± 0.052"}
{"variant": "DATRCSICQKTGEVLHEVSNGSVVHRLCSDSCFSKFCANK", "abundance fitness": "-0.093 ± 0.071"}
{"variant": "DATRCSICQKTGEVLHEVSNGSVVHRLCSDSCFSKFFANK", "abundance fitness": "-0.506 ± 0.088"}
{"variant": "DATRCSICQKTGEVLHEVSNGSVVHRLCSDSCFSKFTANK", "abundance fitness": "0.043 ± 0.064"}
{"variant": "DATRCSICQKTGEVLHEVSNRSVVHRLCSDSCFSKFRANK", "abundance fitness": "-0.354 ± 0.054"}
{"variant": "DATRCSICQKTGEVLHEVSNLSVVHRLCSDSCFSKFRANK", "abundance fitness": "-0.298 ± 0.054"}
{"variant": "DATRCSICQKTGEVLHEVSNCSVVHRLCSDSCFSKFRANK", "abundance fitness": "-0.335 ± 0.081"}
{"variant": "DATRCSICQKTGEVLHEVSNYSVVHRLCSDSCFSKFRANK", "abundance fitness": "-0.389 ± 0.089"}
{"variant": "DATRCSICQKTGEVLGEVSNGSVVHRLCSDSCFSKFRANK", "abundance fitness": "-0.306 ± 0.058"}
{"variant": "DATRCSICQKTGEVLDEVSNGSVVHRLCSDSCFSKFRANK", "abundance fitness": "-0.379 ± 0.092"}
{"variant": "DATRCSICQKTGEVLYEVSNGSVVHRLCSDSCFSKFRANK", "abundance fitness": "-0.466 ± 0.15"}
{"variant": "DATRCSICQKTGEVLVEVSNGSVVHRLCSDSCFSKFRANK", "abundance fitness": "-0.492 ± 0.061"}
{"variant": "DATRCSICQKTGEVLHEVSNGSVVHRLCSDSCMSKFRANK", "abundance fitness": "0.187 ± 0.065"}
{"variant": "DATRCSICQKTGEVLHEVSNGSVVHRLCSDSCSSKFRANK", "abundance fitness": "-0.015 ± 0.058"}
{"variant": "DATRCSICQKTGEVLHEVSNGSVVHRLCSDSCISKFRANK", "abundance fitness": "-0.067 ± 0.11"}
{"variant": "DATRCSICQKTGEVLHEVGNGSVVHRLCSDSCFSKFRANK", "abundance fitness": "-0.1 ± 0.05"}
{"variant": "DATRCSICQKTGEVLHEVVNGSVVHRLCSDSCFSKFRANK", "abundance fitness": "-0.135 ± 0.054"}
{"variant": "DATRCSICQKTEEVLHEVSNGSVVHRLCSDSCFSKFRANK", "abundance fitness": "-0.083 ± 0.077"}
{"variant": "DATRCSICQKTWEVLHEVSNGSVVHRLCSDSCFSKFRANK", "abundance fitness": "-0.639 ± 0.074"}
{"variant": "DATRCSICQKTDEVLHEVSNGSVVHRLCSDSCFSKFRANK", "abundance fitness": "-0.311 ± 0.11"}
{"variant": "DATRCSICQKTPEVLHEVSNGSVVHRLCSDSCFSKFRANK", "abundance fitness": "-0.639 ± 0.082"}
{"variant": "DATRCSICQKTMEVLHEVSNGSVVHRLCSDSCFSKFRANK", "abundance fitness": "-0.089 ± 0.066"}
{"variant": "DATRCSICQKTREVLHEVSNGSVVHRLCSDSCFSKFRANK", "abundance fitness": "-0.165 ± 0.056"}
{"variant": "DATRCSICQKTNEVLHEVSNGSVVHRLCSDSCFSKFRANK", "abundance fitness": "-0.511 ± 0.17"}
{"variant": "DATRCSICQKTFEVLHEVSNGSVVHRLCSDSCFSKFRANK", "abundance fitness": "-0.414 ± 0.15"}
{"variant": "DATRCSICQKTGEVLHEVSNGSVVHRLCSDSCFSKDRANK", "abundance fitness": "-0.082 ± 0.084"}
{"variant": "DATRCSICQKTGEVLHEVSNGSVVHRLCSDSCFSKGRANK", "abundance fitness": "-0.206 ± 0.051"}
{"variant": "DATRCSICQKTGEVLHEVSNGSVVHRLCSDSCFSKVRANK", "abundance fitness": "-0.085 ± 0.066"}
{"variant": "DATRCSICQSTGEVLHEVSNGSVVHRLCSDSCFSKFRANK", "abundance fitness": "-0.231 ± 0.06"}
{"variant": "DATRCSICQLTGEVLHEVSNGSVVHRLCSDSCFSKFRANK", "abundance fitness": "-0.273 ± 0.056"}
{"variant": "DATRCSICQRTGEVLHEVSNGSVVHRLCSDSCFSKFRANK", "abundance fitness": "-0.098 ± 0.052"}
{"variant": "DATRCSICQATGEVLHEVSNGSVVHRLCSDSCFSKFRANK", "abundance fitness": "-0.293 ± 0.061"}
{"variant": "DATRCSICQDTGEVLHEVSNGSVVHRLCSDSCFSKFRANK", "abundance fitness": "-0.49 ± 0.1"}
{"variant": "DATRCSICQYTGEVLHEVSNGSVVHRLCSDSCFSKFRANK", "abundance fitness": "-0.436 ± 0.16"}
{"variant": "DATRCSICQKTGEVLHEVSNGSVKHRLCSDSCFSKFRANK", "abundance fitness": "0.032 ± 0.068"}
{"variant": "DATRCSICQKTGEVLHEVSNGSVYHRLCSDSCFSKFRANK", "abundance fitness": "-0.133 ± 0.072"}
{"variant": "DATRCSICQKTGEVLHEVSNGSVLHRLCSDSCFSKFRANK", "abundance fitness": "-0.077 ± 0.051"}
{"variant": "DATRCSICQKTGEVLHEVSNGSVVHRLCSDSSFSKFRANK", "abundance fitness": "-0.645 ± 0.079"}
{"variant": "DATRCSICQKTGEVLHEVSNGSVVHRLCSDSGFSKFRANK", "abundance fitness": "-0.576 ± 0.054"}
{"variant": "DATRCSICQKTGEVLHEVSNGSVVHRLCSDSCFSMFRANK", "abundance fitness": "0.078 ± 0.07"}
{"variant": "DATRCSICQKTGEVLHEVSNGSVVHRLCSDSCFSDFRANK", "abundance fitness": "0.053 ± 0.076"}
{"variant": "DATRCSICQKTGEVLHEVSNGSVVHRLCSDSCFSCFRANK", "abundance fitness": "-0.959 ± 0.11"}
{"variant": "DATRCSHCQKTGEVLHEVSNGSVVHRLCSDSCFSKFRANK", "abundance fitness": "-0.267 ± 0.11"}
{"variant": "DATRCSYCQKTGEVLHEVSNGSVVHRLCSDSCFSKFRANK", "abundance fitness": "0.079 ± 0.089"}
{"variant": "DATRCSWCQKTGEVLHEVSNGSVVHRLCSDSCFSKFRANK", "abundance fitness": "-0.218 ± 0.061"}
{"variant": "DATRCSPCQKTGEVLHEVSNGSVVHRLCSDSCFSKFRANK", "abundance fitness": "-0.804 ± 0.14"}
{"variant": "DATRCSICQKTGEVLHEVSNGSVVHRLCSDSCFSKFRANL", "abundance fitness": "-0.095 ± 0.11"}
{"variant": "QATRCSICQKTGEVLHEVSNGSVVHRLCSDSCFSKFRANK", "abundance fitness": "-0.251 ± 0.12"}
{"variant": "TATRCSICQKTGEVLHEVSNGSVVHRLCSDSCFSKFRANK", "abundance fitness": "0.303 ± 0.12"}
{"variant": "DATRCSICQKTGEQLHEVSNGSVVHRLCSDSCFSKFRANK", "abundance fitness": "-0.142 ± 0.063"}
{"variant": "DATRCSICQKTGEILHEVSNGSVVHRLCSDSCFSKFRANK", "abundance fitness": "-0.029 ± 0.097"}
